T1: glutathione-S-transferase (GST)-His-mouse Myl9 (mouse, UniProt Q9CQ19 2-172)
T1 construct: The order of the pieces follows the printed name; not shown: glutathione-S-transferase tag of the pET42b vector
T1 sequence: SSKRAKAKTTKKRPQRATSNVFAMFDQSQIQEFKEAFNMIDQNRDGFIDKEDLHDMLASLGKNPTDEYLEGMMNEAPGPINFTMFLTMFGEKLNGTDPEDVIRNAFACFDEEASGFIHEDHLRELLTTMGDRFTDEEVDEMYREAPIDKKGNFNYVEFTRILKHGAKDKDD

T2: human Myl12a-His (human, UniProt P19105 1-171)
T2 construct: Made in E. coli; GST tag cleaved with PreScission Protease; DTT-treated monomer
T2 sequence: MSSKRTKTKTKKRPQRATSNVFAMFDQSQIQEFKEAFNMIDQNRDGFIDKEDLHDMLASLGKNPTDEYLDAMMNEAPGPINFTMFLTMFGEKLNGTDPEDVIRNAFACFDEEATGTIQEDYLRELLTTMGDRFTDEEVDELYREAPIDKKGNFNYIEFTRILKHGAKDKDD

T3: human Myl9-His (human, UniProt P24844 2-172, limits assumed)
T3 construct: Made in E. coli; the GST tag was cleaved with PreScission Protease
T3 sequence: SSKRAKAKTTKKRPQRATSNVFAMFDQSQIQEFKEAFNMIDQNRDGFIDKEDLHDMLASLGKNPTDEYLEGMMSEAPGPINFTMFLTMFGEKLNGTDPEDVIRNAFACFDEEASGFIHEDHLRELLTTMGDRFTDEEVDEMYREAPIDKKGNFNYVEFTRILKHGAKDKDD

T4: human Myl12b-His (human, UniProt O14950 1-172)
T4 construct: Made in E. coli; GST tag cleaved with PreScission Protease; DTT-treated monomer
T4 sequence: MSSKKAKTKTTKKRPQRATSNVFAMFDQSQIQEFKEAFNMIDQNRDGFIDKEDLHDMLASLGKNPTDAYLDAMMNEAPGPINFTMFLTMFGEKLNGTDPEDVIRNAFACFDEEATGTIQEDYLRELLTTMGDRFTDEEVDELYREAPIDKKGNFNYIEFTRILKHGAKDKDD

B1: 3× Flag-mouse CD69 EC (with sugar chain) (receptor, not shown: small tags and cut ends)
chain: NVGKYNCPGLYEKLESSDHHVATCKNEWISYKRTCYFFSTTTKSWALAQRSCSEDAATLAVIDSEKDMTFLKRYSGELEHWIGLKNEANQTWKWANGKEFNSWFNLTGSGRCVSVNHKNVTAVDCEANFHWVCSKPSR
modifications: N-linked sugar chains present (made in Expi293F cells, not PNGase F treated)
notes: Secreted from Expi293F cells and purified on Anti-Flag M2 gel; also called 3× Flag mouse CD69 EC protein; mouse CD69 extracellular region protein
B2: PNGase F-treated 3× Flag-mouse CD69 EC (without sugar chain) (receptor, not shown: small tags and cut ends)
chain: NVGKYNCPGLYEKLESSDHHVATCKNEWISYKRTCYFFSTTTKSWALAQRSCSEDAATLAVIDSEKDMTFLKRYSGELEHWIGLKNEANQTWKWANGKEFNSWFNLTGSGRCVSVNHKNVTAVDCEANFHWVCSKPSR
modifications: N-linked sugar chain cleaved with PNGase F
notes: also called 3× Flag-mouse CD69 EC subjected to sugar chain cleaving treatment; mouse CD69 extracellular region protein
B3: chimeric antibody prepared from Antibody A (antibody, human IgG2, kappa, V domains shown)
VH: QVQLQQSGAEVVRPGASVTLSCKASGYTFTDYEMHWVKQTPVHGLEWIGAIDPETGGTAYNQKFKGKAILTADKSSNTAYMELRSLTSEDSAVYYCTDYDYDGFAYWGQGTLVTVSA
VL: DVVMTQTPLSLPVSLGDQASISCRSSQSLVHSNGNTYLHWYLQKPGRSPKLLISKVSNRFSGVPDRFSGSGSGTDFTLKITRVEAEDLGVYFCSQNTHVPPLTFGAGTKLELKR
notes: VH and VL amino acid numbers 13 and 15 are deduced as for Antibody A
B4: Humanized antibody No. 113 (antibody, human IgG2, kappa, V domains shown)
VH: QVQLVQSGAEVKKPGSSVKVSCKASGGTFSDYEMHWVRQAPGQGLEWMGAIDPETGGTAYNQKFKGRVTITADKSTSTAYMELRSLRSEDTAVYYCADYDYDGFAYWGQGTLVTVSS
VL: DIVMTQSPLSLSITPGEQASISCRSSQSLVHSNGNTYLHWYLQKPGQSPQLLISKVSNRFSGVPDRFSGSGSGTDFTLKISRVEAEDVGVYFCSQNTHVPPLTFGGGTKVEIKR
notes: human IgG2 (V234A, G237A, C-terminal Lys deleted) / kappa; Expi293F, Protein A purified; also called HK1-6/L1-5
B5: Humanized antibody No. 111 (antibody, human IgG2, kappa, V domains shown)
VH: QVQLVQSGAEVKKPGSSVKVSCKASGYTFTDYEMHWVRQAPGQGLEWMGAIDPETGGTAYAQKFQGRATITADKSTSTAYMELRSLRSEDTAVYYCADYDYDGFAYWGQGTLVTVSS
VL: DIVMTQSPLSLSITPGEQASISCRSSQSLVHSNGNTYLHWYLQKPGQSPQLLISKVSNRFSGVPDRFSGSGSGTDFTLKISRVEAEDVGVYFCSQNTHVPPLTFGGGTKVEIKR
notes: human IgG2 (V234A, G237A, C-terminal Lys deleted) / kappa; Expi293F, Protein A purified; also called HA1-4/L1-5
B6: Humanized antibody No. 110 (antibody, human IgG2, kappa, V domains shown)
VH: QVQLVQSGAEVKKPGSSVKVSCKASGYTFTDYEMHWVRQAPGQGLEWMGAIDPETGGTAYAQKFQGRVTITADKSTSTAYMELRSLRSEDTAVYYCADYDYDGFAYWGQGTLVTVSS
VL: DIVMTQSPLSLSITPGEQASISCRSSQSLVHSNGNTYLHWYLQKPGQSPQLLISKVSNRFSGVPDRFSGSGSGTDFTLKISRVEAEDVGVYFCSQNTHVPPLTFGGGTKVEIKR
notes: human IgG2 (V234A, G237A, C-terminal Lys deleted) / kappa; Expi293F, Protein A purified; also called HA1-6/L1-5
B7: Humanized antibody No. 115 (antibody, human IgG2, kappa, V domains shown)
VH: QVQLVQSGAEVKKPGSSVKVSCKASGYTFSDYEMHWVRQAPGQGLEWIGAIDPETGGTAYNQKFKGRATITADKSTSTAYMELRSLRSEDTAVYYCTDYDYDGFAYWGQGTLVTVSS
VL: DIVMTQSPLSLSITPGEQASISCRSSQSLVHSNGNTYLHWYLQKPGQSPQLLISKVSNRFSGVPDRFSGSGSGTDFTLKISRVEAEDVGVYFCSQNTHVPPLTFGGGTKVEIKR
notes: human IgG2 (V234A, G237A, C-terminal Lys deleted) / kappa; Expi293F, Protein A purified; also called HK1-A/L1-5
B8: Humanized antibody No. 112 (antibody, human IgG2, kappa, V domains shown)
VH: QVQLVQSGAEVKKPGSSVKVSCKASGGTFSDYEMHWVRQAPGQGLEWMGAIDPETGGTAYNQKFKGRVTITADKSTSTAYMELSSLRSEDTAVYYCADYDYDGFAYWGQGTLVTVSS
VL: DIVMTQSPLSLSITPGEQASISCRSSQSLVHSNGNTYLHWYLQKPGQSPQLLISKVSNRFSGVPDRFSGSGSGTDFTLKISRVEAEDVGVYFCSQNTHVPPLTFGGGTKVEIKR
notes: human IgG2 (V234A, G237A, C-terminal Lys deleted) / kappa; Expi293F, Protein A purified; also called HK1-5/L1-5
B9: Humanized antibody No. 116 (antibody, human IgG2, kappa, V domains shown)
VH: QVQLVQSGAEVKKPGASVKVSCKASGYTFTDYEMHWVRQAPGQGLEWMGAIDPETGGTAYNQKFKGRVTMTADTSTSTAYMELSSLRSEDTAVYYCADYDYDGFAYWGQGTLVTVSS
VL: DIVMTQSPLSLSITPGEQASISCRSSQSLVHSNGNTYLHWYLQKPGQSPQLLISKVSNRFSGVPDRFSGSGSGTDFTLKISRVEAEDVGVYFCSQNTHVPPLTFGGGTKVEIKR
notes: human IgG2 (V234A, G237A, C-terminal Lys deleted) / kappa; Expi293F, Protein A purified; also called HK2-5/L1-5
B10: Humanized antibody No. 114 (antibody, human IgG2, kappa, V domains shown)
VH: QVQLVQSGAEVKKPGSSVKVSCKASGGTFSDYEMHWVRQAPGQGLEWMGAIDPETGGTAYNQKFKGRATITADKSTSTAYMELRSLRSEDTAVYYCADYDYDGFAYWGQGTLVTVSS
VL: DIVMTQSPLSLSITPGEQASISCRSSQSLVHSNGNTYLHWYLQKPGQSPQLLISKVSNRFSGVPDRFSGSGSGTDFTLKISRVEAEDVGVYFCSQNTHVPPLTFGGGTKVEIKR
notes: human IgG2 (V234A, G237A, C-terminal Lys deleted) / kappa; Expi293F, Protein A purified; also called HK1-4/L1-5

Tests used:
[1] = target: T1, glutathione-S-transferase …; experiment: ELISA, GST-His-mouse Myl9 coated, anti-Flag-HRP
Experimental: Next, ELISA was performed in order to analyze the presence or absence of association between mouse Myl9 and mouse CD69 (FIGS. 3A and 3B). Specifically, GST-His-mouse Myl3 protein and GST-His-mouse Myl9 protein were added at a concentration of 5 μg/mL, and this was incubated overnight at 4° C. to immobilize them onan ELISA plate. On the next day, Block Ace (Sumitomo Dainippon Pharma Co., Ltd.) was employed to allow blocking at […] temperature for one hour, and then this was washed three times with a wash buffer (50 mM HEPES (pH 6.5), 150 mM NaCl, and 0.02% Tween 20). Different concentration of 3× Flag mouse CD69 EC protein was added to each well, and this was reacted at room temperature for one and a half hours. In FIG. 3B, 3× Flag mouse CD69 EC protein in which the N-linked sugar chain was cleaved with PNGase F (NEB) was employed. The cleaving treatment of the N-linked sugar chain was performed by employing 1,000 U of PNGase F for 4 μg of 3× Flag mouse CD69 EC protein. After washing three times with the wash buffer, HRP-labeled anti-Flag (M2) antibody (Sigma) was added, this was reacted at room temperature for one hour, and then washed five times with the wash buffer. TMB solution (BIO-RAD) was used as the coloring substrate, and the reaction was quenched with 1N H₂SO₄. SpectraMAX Paradigm (Molecular Device) was employed to measure the value at 450 nm.

human Myl12a-His = target: T2, human Myl12a-His; experiment: ELISA, human Myl12a-His coated, anti-human IgG-HRP
Experimental: (§1) The binding ability of chimeric and humanized antibodies prepared from Antibody A against human Myl12a and Myl12b was evaluated following the steps below by ELISA. Human Myl3-His, human Myl9-His, human Myl12a-His and human Myl12b-His were coated onto the wells of a 96-well plate (Nunc), respectively. After an overnight incubation at 4° C., the wells were blocked at room temperature for one hour with 1× Block Ace (DS Pharma Biomedical Co., Ltd.). After washing three times with 0.02% Tween 20/PBS, the chimeric and humanized antibodies were diluted at the concentration of 0.01, 0.1 and 1 μg/mL, respectively and added to the wells. After incubation at room temperature for one hour and washing three times, horseradish peroxidase-labeled anti-human IgG antibody (Jackson ImmunoResearch Laboratories) was added, and this was incubated at room temperature for one hour. After washing 5 times, TMBZ (3,3′,5,5′-tetramethylbenzidine) solution was added to the wells, and this was incubated for 5-20 minutes at room temperature. An equal amount of reaction quenching solution (2N H₂SO₄) was added to the wells, and absorbance at 450 nm was read with a microplate reader (Thermo Scientific).

human Myl3-His = target: T5, human Myl3-His (human, UniProt P08590 2-195, limits assumed); experiment: ELISA at 0.01, 0.1 and 1 µg/mL, human Myl3-His coated, anti-human IgG-HRP
T5 construct: Made in E. coli; the GST tag was cleaved with PreScission Protease
Experimental: as §1

human Myl9-His = target: T3, human Myl9-His; experiment: ELISA, human Myl9-His coated, anti-human IgG-HRP
Experimental: The binding ability against human Myl9 was evaluated following the steps below by ELISA. Human Myl3-His and human Myl9-His were coated onto the wells of a 96-well plate (Nunc). After an overnight incubation at 4° C., the wells were blocked at room temperature for one hour with 1× Block Ace (DS Pharma Biomedical Co., Ltd.). After washing three times with 0.02% Tween 20/PBS, seven serial dilutions by six folds of the chimeric and humanized antibodies were made from a concentration of 10 μg/mL and added to the wells. After incubation at room temperature for one hour and washing three times, horseradish peroxidase-labeled anti-human IgG antibody (Jackson ImmunoResearch Laboratories) was added, and this was incubated at room temperature for one hour. After washing 5 times, TMBZ (3,3′,5,5′-tetramethylbenzidine) solution was added to the wells, and this was incubated for 5-20 minutes at room temperature. An equal amount of reaction quenching solution (2N H₂SO₄) was added to the wells, and absorbance at 450 nm was read with a microplate reader (PerkinElmer).

human Myl12b-His = target: T4, human Myl12b-His; experiment: ELISA, human Myl12b-His coated, anti-human IgG-HRP
Experimental: as §1

T5 sequence (P08590 2-195 limits assumed): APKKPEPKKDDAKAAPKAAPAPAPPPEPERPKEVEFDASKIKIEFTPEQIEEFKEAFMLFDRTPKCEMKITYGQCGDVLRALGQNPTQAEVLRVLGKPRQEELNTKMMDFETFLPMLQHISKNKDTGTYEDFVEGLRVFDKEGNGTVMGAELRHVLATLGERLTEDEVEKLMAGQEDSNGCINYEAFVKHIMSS

| Binder | binding result [1] | binding result (human Myl12a-His) | binding result (human Myl3-His) | binding result (human Myl9-His) | binding result (human Myl12b-His) |
| --- | --- | --- | --- | --- | --- |
| B1 | binds | – | – | – | – |
| B2 | binds | – | – | – | – |
| B3 | – | binds | no binding (tested: 1 µg/mL) | binds | binds |
| B4 | – | binds | no binding (tested: 1 µg/mL) | binds | binds |
| B5 | – | binds | no binding (tested: 1 µg/mL) | binds | binds |
| B6 | – | binds | no binding (tested: 1 µg/mL) | binds | binds |
| B7 | – | binds | no binding (tested: 1 µg/mL) | binds | binds |
| B8 | – | binds | no binding (tested: 1 µg/mL) | binds | binds |
| B9 | – | binds | no binding (tested: 1 µg/mL) | binds | binds |
| B10 | – | binds | no binding (tested: 1 µg/mL) | binds | binds |
